Measurements published in patent EP0811683B1, “Antibodies to human gastrin-releasing peptide precursor and use thereof” (Yamaguchi, Ken, priority 1996, dated 1997).
Where no end group is shown, it is not given here.

Assay: Comparison of stability of GRPs in the blood (serum, plasma, aprotinin-containing plasma; Fig. 3)
Assay type: in vitro ADME
Conditions: 0, 1 and 6 hours, result in words
Procedure: Stabilities in the blood of GRP(1-27) and GRP(31-98) were compared using antibodies to the above-prepared GRP(31-98) and antibodies to the conventional GRP(1-27).
A small amount of GRP(1-27) or GRP(31-98) was added to a serum, plasma, or aprotinin - containing plasma, and the residual concentration of GRP(1-27) and GRP(31-98) was determined at 0, 1, and 6 hours from the addition, and the percentages of the residual concentration were obtained taking the concentration at the starting point (0 hour) as 100%.

Substance: GRP(1-27): mature human gastrin-releasing peptide, active peptide of 27 amino acids (VPLPAGGGTVLTKMYPRGNHWAVGHLM; ends and bridges not checked; UniProt P07492 24-50, looked up)
- stability in serum or plasma (residual concentration): degraded and disappeared
